For test [1], the target named is Mas receptor, endogenous in mouse striatal cells (mouse (endogenous in primary striatal neurons and microglia)) (UniProt P30554). The experiment in a line: proximity ligation.
Test [2] deals with T1, Mas receptor fused to Rluc (MasR-Rluc) (human), P04201.
T1 chain: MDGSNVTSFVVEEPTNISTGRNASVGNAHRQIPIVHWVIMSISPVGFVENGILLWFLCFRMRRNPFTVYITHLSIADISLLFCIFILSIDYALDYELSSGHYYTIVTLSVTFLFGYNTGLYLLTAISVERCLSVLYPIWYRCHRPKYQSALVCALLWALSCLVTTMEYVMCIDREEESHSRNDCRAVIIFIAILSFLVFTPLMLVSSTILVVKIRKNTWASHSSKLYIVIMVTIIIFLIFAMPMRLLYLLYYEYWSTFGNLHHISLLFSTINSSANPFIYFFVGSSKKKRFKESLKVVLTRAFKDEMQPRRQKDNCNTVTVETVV
Kind of test: FRET or BRET. The settings on record: remark: other sources report otherwise.

Chain of UniProt P30554 (P30554 whole entry, the tested form may be a part): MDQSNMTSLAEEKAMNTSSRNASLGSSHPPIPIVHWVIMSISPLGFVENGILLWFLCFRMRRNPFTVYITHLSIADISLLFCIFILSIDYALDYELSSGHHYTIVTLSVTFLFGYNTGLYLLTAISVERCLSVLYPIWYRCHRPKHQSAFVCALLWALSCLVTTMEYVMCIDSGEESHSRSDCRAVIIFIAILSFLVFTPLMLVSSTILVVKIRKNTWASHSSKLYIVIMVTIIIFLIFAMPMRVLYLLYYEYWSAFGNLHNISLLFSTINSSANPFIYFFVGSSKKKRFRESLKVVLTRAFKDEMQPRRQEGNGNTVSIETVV

“Angiotensin AT1 receptor, endogenous in mouse striatal cells (from UniProt P29754 1-359)” had a PLA red dots/cell (striatal neurons) (red dots/cell) in test [1] of 1.44.

B1: Angiotensin AT1 receptor fused to YFP (AT1R-YFP), P30556 1-359 (receptor)
chain: MILNSSTEDGIKRIQDDCPKAGRHNYIFVMIPTLYSIIFVVGIFGNSLVVIVIYFYMKLKTVASVFLLNLALADLCFLLTLPLWAVYTAMEYRWPFGNYLCKIASASVSFNLYASVFLLTCLSIDRYLAIVHPMKSRLRRTMLVAKVTCIIIWLLAGLASLPAIIHRNVFFIENTNITVCAFHYESQNSTLPIGLGLTKNILGFLFPFLIILTSYTLIWKALKKAYEIQKNKPRNDDIFKIIMAIVLFFFFSWIPHQIFTFLDVLIQLGIIRDCRIADIVDTAMPITICIAYFNNCLNPLFYGFLGKKFKRYFLQLLKYIPPKAKSHSNLSTKMSTLSYRPSDNVSSSTKKPAPCFEVE
In the case of B1, in test [2], the BRET50 was determined as 13 mBU.
